Patent US20160186156A1 (YEDA RESEARCH AND DEVELOPMENT, published 2016)

Target: T1, primary hexavalent scaffold CohII-C-A-CBM-T-G-F
T1 chain: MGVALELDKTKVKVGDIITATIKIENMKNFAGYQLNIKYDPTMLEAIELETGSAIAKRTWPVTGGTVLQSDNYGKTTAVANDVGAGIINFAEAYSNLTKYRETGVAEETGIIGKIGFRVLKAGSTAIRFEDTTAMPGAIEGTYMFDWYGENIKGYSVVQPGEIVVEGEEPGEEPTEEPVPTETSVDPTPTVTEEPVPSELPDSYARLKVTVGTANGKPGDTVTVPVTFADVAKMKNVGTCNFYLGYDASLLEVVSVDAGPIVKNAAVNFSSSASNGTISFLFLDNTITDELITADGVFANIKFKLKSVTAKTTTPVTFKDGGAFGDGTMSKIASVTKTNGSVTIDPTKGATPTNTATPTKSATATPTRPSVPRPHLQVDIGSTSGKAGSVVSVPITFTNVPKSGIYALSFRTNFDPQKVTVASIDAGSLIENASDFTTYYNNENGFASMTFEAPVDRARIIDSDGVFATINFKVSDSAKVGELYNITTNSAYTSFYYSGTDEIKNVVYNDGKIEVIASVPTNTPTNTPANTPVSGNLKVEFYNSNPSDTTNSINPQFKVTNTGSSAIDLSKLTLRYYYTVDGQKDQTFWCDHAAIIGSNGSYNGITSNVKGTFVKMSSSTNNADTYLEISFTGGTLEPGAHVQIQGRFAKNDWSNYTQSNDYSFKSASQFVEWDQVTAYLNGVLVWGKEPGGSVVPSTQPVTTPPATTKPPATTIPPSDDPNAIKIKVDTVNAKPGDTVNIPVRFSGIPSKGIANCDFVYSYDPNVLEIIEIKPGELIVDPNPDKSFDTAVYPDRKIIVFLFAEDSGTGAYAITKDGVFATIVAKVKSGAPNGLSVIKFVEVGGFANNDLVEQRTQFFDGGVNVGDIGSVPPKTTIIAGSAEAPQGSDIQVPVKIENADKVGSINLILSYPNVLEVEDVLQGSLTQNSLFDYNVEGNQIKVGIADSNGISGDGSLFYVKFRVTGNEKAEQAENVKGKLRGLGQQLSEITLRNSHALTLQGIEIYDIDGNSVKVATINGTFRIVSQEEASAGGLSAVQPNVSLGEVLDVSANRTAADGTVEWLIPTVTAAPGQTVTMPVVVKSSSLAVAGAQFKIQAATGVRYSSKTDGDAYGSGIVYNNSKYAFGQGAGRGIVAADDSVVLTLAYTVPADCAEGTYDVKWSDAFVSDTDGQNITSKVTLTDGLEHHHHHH
Assay: cell-based or functional assay

B1: adaptor scaffold CBM-A-B-T-DockII (other)
chain: MANTPVSGNLKVEFYNSNPSDTTNSINPQFKVTNTGSSAIDLSKLTLRYYYTVDGQKDQTFWCDHAAIIGSNGSYNGITSNVKGTFVKMSSSTNNADTYLEISFTGGTLEPGAHVQIQGRFAKNDWSNYTQSNDYSFKSASQFVEWDQVTAYLNGVLVWGKEPGGSVVPSTQPVTTPPATTKPPATTKPPATTIPPSGSDLQVDIGSTSGKAGSVVSVPITFTNVPKSGIYALSFRTNFDPQKVTVASIDAGSLIENASDFTTYYNNENGFASMTFEAPVDRARIIDSDGVFATINFKVSDSAKVGELYNITTNSAYTSFYYSGTDEIKNVVYNDGKIEVIASPTPTQSATPTVTPSATATPTQSATPTVTPSSPGNKMKIQIGDVKANQGDTVIVPITFNEVPVMGVNNCNFTLAYDKNIMEFISADAGDIVTLPMANYSYNMPSDGLVKFLYNDQAQGAMSIKEDGTFANVKFKIKQSAAFGKYSVGIKAIGSISALSNSKLIPIESIFKDGSITVTNTPTNTISVTPTNNSTPTNNSTPKPNPLSDGVVVEIGKVTGSVGTTVEIPVYFRGVPSKGIANCDFVFRYDPNVLEIIGIDPGDIIVDPNPTKSFDTAIYPDRKIIVFLFAEDSGTGAYAITKDGVFAKIRATVKSSAPGYITFDEVGGFADNDLVEQKVSFIDGGVNVGNATRSTNKPVIEGYKVSGYILPDFSFDATVAPLVKAGFKVEIVGTELYAVTDANGYFEITGVPANASGYTLKISRATYLDRVIANVVVTGDTSVSTSQAPIMMWVGDIVKDNSINLLDVAEVIRCFNATKGSANYVEELDINRNGAINMQDIMIVHKHFGATSSDYDAQLEHHHHHH
  wheat straw degradation, reducing sugars released after 48 hours incubation at 50 C (FIG. 5, Column 7 against Columns 4 and 6): ~2 fold
